Tested on: panel of 18 different duocarmycin-containing antibody-drug conjugates having a common DNA alkylating moiety
Assay: BIA (Biomolecular Interaction Analysis) assay, surface plasmon resonance, second screening for pan-reactive antibodies
Assay type: binding
Conditions: anti-hapten mAb captured on polyclonal anti-mouse surface; ADCs 1 to 18 of FIG. 2 injected sequentially, approx. 20 μg/mL, 25° C.
Text: The samples of the supernatant culture fluid are screened with a suitable assay for the selection of pan-reactive antibodies reactive to the antigen. Suitable immunoassays are well known and may be readily determined by the person skilled in the art. A preferred immuno-assay is the Biomolecular Interaction Analysis (BIA) assay in which the sensor chip surface is modified by immobilization of polyclonal anti-mouse which results in a surface that can bind any mouse monoclonal antibodies.
In a specific embodiment of the present invention, the BIA assay is performed using an anti-hapten A, B or C monoclonal antibody captured on a polyclonal anti-mouse surface to a high binding level (capture reagent). Subsequently, a panel of duocarmycin-containing antibody-drug conjugates is injected sequentially and the signal (RU, resonance or responsive units) indicating binding is recorded. The panel of duocarmycin derivatives contain the same DNA alkylating moiety as a common structural moiety (as shown hereinabove), but have a different DNA binding moiety, and/or linker, and/or antibody. Monoclonal, pan-reactive antibodies are selected based on surface plasmon resonance (SPR), which response is directly proportional to the mass increase on the surface. An increase in mass on the surface is a positive binding reaction. Those antibodies binding to at least 3, preferably at least 5, more preferably at least 10, even more preferably at least 15, most preferably at least 18 different duocarmycin-containing antibody-drug conjugates having the same DNA alkylating moiety described hereinabove, are selected as pan-reactive antibodies in accordance with the present invention.
The BIA (Biomolecular Interaction Analysis) assay was used for the selection of monoclonal, pan-reactive antibodies. One flow cell on a CMS sensor chip was immobilized by amine coupling with polyclonal anti-mouse to a level of approx. 16,000 RU. […]

Row | Molecule | binding to a panel of 18 different duocarmycin-containing antibody-drug conjugates
1 | A-15-5-4: monoclonal, pan-reactive anti-duocarmycin antibody derived from hapten A; VH/VL SEQ ID NO:1 and 2 (antibody, listed as Mus musculus, V domains shown) VH: QVQLQQPGAELVKPGASVKLPCKASGYTFISYYMYWVKQRPGQGLEWIGVINPSNGGTTFNEKFKNKATLTVDKSSSTAYLQLSSLTSEDSAVYYCTCLNYYGSSYWYFDVWGAGTTVTVSS VL: DVVMTQTPLSLPVSLGDQASIFCRSSQSLVHSDGNTYLHWYLQKPGQSPKLLIYTVSNRFSGVPDRFSGSGSGTDFTLKISRVEAEDLGVYFCSQSTHVPWTFGGGTTLEIK | show binding
2 | C-16-1-7: monoclonal, pan-reactive anti-duocarmycin antibody derived from hapten C; VH/VL SEQ ID NO:5 and 6 (antibody, listed as Mus musculus, V domains shown) VH: EVKLVESGGGLVKPGGSLKVSCAASGFTFSSYAMSWVRQIPDKRLEWVASISTGGITYYLDGVKGRFTISRDNARNILYLQMSSLRSEDTAIYYCARWSYAMDYWGQGTSVTVSS VL: QIVLTQSPAIMSASLGERVTMTCTASSSVSSSYLHWYQQKPGSSPKVWIYSTSNLASGVPARFRGSGSGTSYSLTISSMEAEDAATYYCHQYHRSPPTFGGGTKLEIK | show binding
3 | B-6-2-10: monoclonal, pan-reactive anti-duocarmycin antibody derived from hapten B; VH/VL SEQ ID NO:3 and 4 (antibody, listed as Mus musculus, V domains shown) VH: DVKLVESGGGLVKPGGSLKLSCAASGFTFRTYTMSWVRQTPEKRLEWVATISSGGSYTYYPDSMKGRFTISRDNAKNTLYLQMSSLKSEDTAMYYCTRGPFYDVYYFLFAYWGQGTLVTVSA VL: QAVVTQESALTTSPGETVTLTCRSSIGAVTTTNYANWVQEKPDHLFTGLIGGTNNRAPGVPARFSGSLIGDKAALTITGAQTEDEAIYFCALWYSNHWVFGGGTKLTVL | show binding
